Patent publication US20210062171A1, “NOVEL SIALIDASES AND USES THEREOF” (The Regents of the University of California, priority 2019, published 2021)
“Also recorded” adds a separate entry of the source.

Tests used:
Type in all cases: biochemical
[1] = Fluorogenic sialidase assay with 4MU-α-Neu5Gc; conditions: for Hydrolysis of 4MU-α-Neu5Gc: compost metagenomic fosmid clones in E. coli, fluorescence λex=365 nm, λem=445 nm; for Preference for Neu5Gc hydrolysis compared to known bacterial exo-sialidases: in vitro, 4MU-α-Neu5Gc versus 4MU-α-Neu5Ac, comparators Au, Cp, Mv, St, Vc sialidases
Text: To determine if Neu5Gc-specific sialidases are restricted to enteric bacteria, we utilized functional metagenomic screening to identify exo-sialidases with a Neu5Gc specificity in a terrestrial environment. A fosmid library containing ˜40 kb inserts of total environmental DNA isolated from soil from an organic composting facility was constructed in E. coli Lysates from 5,376 clones were screened for hydrolysis of 4MU-α-Neu5Gc. During environmental DNA extraction 100, environmental samples 102 are collected and environmental DNA 104 is extracted. DNA extraction is followed by metagenomics library production 110 where fosmid vectors 112 are ligated with environmental DNA to produce plasmids 114 that are transfected into E. coli cells 116. During functional screening 120, one clone 122 is present per well in a well plate and hits 124 are selected by a means known in the art. Following functional screening 120, hits 132 are sequenced during a sequencing step 130 using any method for sequencing known in the art. Gene prediction and database comparison 140 is used to identify enzyme candidates 142; the enzyme candidates are expressed and characterized 150 in plasmids 152, which are transfected into E. coli and expressed as enzymes 154 for further characterization and/or use.
(§1) Following the enzyme selection process, clones showing activity were tested subsequently and re-tested for their ability to cleave 4MU-α-Neu5Ac. […] The DNA sequence of cloned inserts from C19 and C22 each encoded a single bacterial sialidase gene.
(§2) The compost metagenomic library (theoretically encoding ˜215,000 environmental genes) was differentially screened with fluorogenic 2′-(4-methylumbelliferyl)-α-D-N-glycolylneuraminic acid (4MU-α-Neu5Gc) (Sussex Research, Ottawa, CA) and 2′-(4-methylumbelliferyl)-α-D-N-acetyineuraminic acid 4MU-α-Neu5Ac (Toronto Research Chemicals, Toronto, CA) substrates. In a primary screen, library clones were grown in 384-well plates containing 50 μL LB liquid cultures (10 g tryptone. 5 g yeast extract, 10 g NaCl, 1 g dextrose, 1 g MgCl2-6H2O, 2 mL of 2M NaOH per liter, containing chloramphenicol 12.5 μg/mL and 1× inducing solution (Lucigen Corporation)) overnight at 37° C. Fifty microliters of Y-per lysis buffer (Thermo Fischer Scientific, Waltham, Mass.) containing 40 μg/mL of 4MU-α-Neu5Gc was added to each well. The mixtures were incubated overnight at 37° C. in a static incubator. Fluorescence at λex=365 nm and λem=445 nm was read with a SpectraMax Plus 384 Microplate Reader (Molecular Devices, Sunnyvale, Calif.) at 6 h, 24 h and 48 h. Positive clones were defined as those showing fluorescence greater than 3 standard deviations above the mean background, and each was re-archived in a fresh 384-well plate in sterile 20% (v/v) glycerol. […]

[2] = Fluorogenic sialidase assay with 4MU-α-Neu5Ac; conditions: compost metagenomic fosmid clones in E. coli, fluorescence λex=365 nm, λem=445 nm
Experimental: as §1
as §2, with “Fifty microliters of Y-per lysis buffer (Thermo Fischer Scientific, Waltham, Mass.) containing 40 μg/mL of 4MU-α-Neu5Gc was added to each well. The mixtures were incubated overnight at 37° C. in a static incubator.” left out

[3] = In vitro sialidase activity assay on mixed WT and Cmah−/− mouse serum (DMB derivatization, HPLC); conditions: purified enzyme 0.5-10 μg; pH 6.5, 7.0 and 8.0; 1 hour at 37° C.
Experimental: Bin13 sialidases were tested for Neu5Gc release. Each of the five sialidases genes in bin13 were PCR amplified (FIG. 12) and heterologously expressed in vitro, purified, and assayed for its substrate preference. Sialidase activity measurements were performed using different enzyme concentrations (0.5-10 μg) at three different pH levels (6.5, 7.0, and 8) (FIGS. 3A, 13). […] Additionally, we tested in vivo sialidase activity in fresh fecal samples. Clarified fecal pellets from mice fed with PSM tend to preferentially release Neu5Gc compared to clarified fecal pellets from mice fed with Soy (FIG. 3D).
Sialidases purified as described above were quantified using SDS-PAGE image analysis with BSA references (Bio-Rad) and absorbance using the Nanophotometer P330 (Implen), with extinction coefficients calculated using ExPASy Translate. […] The samples were kept at −20° C. until derivatization and analyzed by HPLC as described below. […] The DMB-derivatized samples were analyzed on a Dionex Ultra3000 HPLC System using a Phenomenex Gemini 5μ C18 250×4.6-mm HPLC column at room temperature, eluted in isocratic mode with 85% water, 7% methanol, 8% acetonitrile. […]

[4] = Sialidase activity on food sources (Neu5Gc release); conditions: 2 μg enzyme, 2 h at 37° C., Tris-HCl pH 7; beef, pork, PSM chow
Text: Fecal shotgun metagenomes from the Hadza people (Table 4), a genetically distinct indigenous ethnic group that resides in remote Tanzania was reanalyzed. The Hadza are hunter-gatherers and change their diet periodically throughout the year according to food availability. In dry seasons, their diet is enriched in meat and tubers, whereas in wet seasons it consists largely of honey and berries. Raw reads from Hadza metagenomes were mapped to bin13. […] To evaluate the sialidases genes present in the Hadza microbiome, the combined metagenomes were co-assembled and 24 genome bins containing 51 sialidase genes were identified (FIG. 17, Table 5). The binHz19, whose closest relative was Alistipes sp., was equally abundant in microbiomes from both seasons (FIG. 2B, Table 5). […] This difference supports the notion that sialidaseHz136 is capable of metabolizing structurally diverse glycans, a concept that would be of benefit to an individual with seasonal variations in diet. To additionally determine if sialidase26 and sialidaseHz136 can release Neu5Gc from food sources directly, we test their activity on beef, pork, and PSM chow as substrate.
Beef (New York Steak) and pork (breakfast sausage) were purchased at Whole Foods Market and cut in small pieces using sterile blades. PSM chow was powdered using mortar and pestle. […]

B1: C19: GH33 exo-sialidase from compost soil metagenomic fosmid clone C19, SEQ ID NO. 7 (protein)
chain: MKRTGWLLLLVSGPALCQPPRGYSIPLIDLAAEAWRQTVVDREPGQYLGHPTTVLLEDGRTVLAVYPKGHGRGAIVYKRSRDGGRTWSARLPVPENWATSQETPTIHRVVDPRGRKRLILFSGLYPIRMSVSEDDGETWTPLAPIGNFGGVVAMASVERLRDGRYMALFHDDGRFLRGGGKPDRFVVYKTLSGDGGLTWSEPVPILSHPQAHLCEPGLLRSPDGRRIAILLRENSRKFNSFVSFSDDEGETWSEPRELPGALTGDRHTAVYARDGRLFISFRDTTHESPTRGDWVAWVGRFGDIENGREGQYRVRLMKNHKDLDCCYPGVLRLPDDTILTTTYGHWTPGEPPYIVSIRLRLSELDRRAQGAGR
modifications: Environmental sample
Hydrolysis of 4MU-α-Neu5Gc [1]: significant hydrolysis; also recorded: significant activity
Preference for Neu5Gc hydrolysis compared to known bacterial exo-sialidases [1]: marked preference for Neu5Gc hydrolysis
Activity on 4MU-α-Neu5Ac [2]: only minor activity

B2: sialidaseHz136: Sialidase from binHz19 of Hadza shotgun metagenome, SEQ ID NO. 6, PDB 6MNJ (protein)
chain: MMKRTFWLIALSLLSLTLSASDSLRIHNPQIPILLDRMDNVLFLIRVPDAVQGNVLESLTVEFGPDTDLNSIAELRLFYSGTEAVRRQGLRFSPVEYISAHNVWNTRSANPSYSVMQEQASKIGRKVVLHSRQPMVGGINYYWVSVRMNPDASLLTELRARVSEVVVNGKKIPVACDSREVVRRMGYGVRHAGDDHSMAYRIPGLVTTNSGSLIGTYDVRWNSSVDLQERIDIGVSRSTDKGQTWEPMRIAMSFADIDGLPSGQNGVGDPAVLVDEKTGTIWVMAAWTHGMGNGRAWTNSMPGMEPMETPQLMLARSDDDGRTWSEPINITKQVKDPSWCFLLQGPGRGITMRDGTLVFAIQFIDKDRMPHAGIIFSKDHGETWHIHNPARSNTTEAQVAEVEPGVLMLNMRDNRGGARAVMTTRDLGRTWTEHVSHRTTLREPVCMASLIAVPAEKNVLGKDLLLFSNPDTTDGRRDITIKASLDGGVTWPYSLLLDEGDSWGYSCLTMIDSQTVGILYESSVAHITFQAAKLKAIVK
modifications: Environmental sample
notes: 6, PDB 6MNJ
Substrate preference, Neu5Gc versus Neu5Ac release [3]: preferential activity for Neu5Gc over Neu5Ac in all tested conditions
Release of Neu5Gc from food [4]: pronounced sialidase activity by releasing Neu5Gc from all food tested

B3: C22: GH33 exo-sialidase from compost soil metagenomic fosmid clone C22, SEQ ID NO. 8 (protein)
chain: MVIAWMAGVQCTAAALVDLGVTILDISGEPERQVIVDREPGQYLGHVSTVLLEDDKTILAVYPKGHGRGAIVLKRSEDGGRTWSGRLPVPASWATSKETPTIHRVVDARGRRRLLLWSGLYPARRALSDDDGRTWTELEPVGEWGGIVVMGFVEATRQPGHYVAMFHDDGRYFAAQPSTNRSMTLYLTRSSDGGVSWSSPVAVWSNSAVHLCEPGGIWSPDRRRLAVLLRENRRVNNSHIMFSDDEGHTWTTPVEMPLSRAGDRHTLRYTPDGRIVCVFRAVTPVGMRGRSFGQNEDVDTLGVGSPFEGDCVAWVGTWDDLVHNRPGQYYVRLLNNRKGWDTTYPGVEVLPDGTVVVTTYGHWNAGEPPYIRSVRFRLEELDRMAAKASQKP
modifications: Environmental sample
Hydrolysis of 4MU-α-Neu5Gc [1]: significant hydrolysis; also recorded: significant activity
Preference for Neu5Gc hydrolysis compared to known bacterial exo-sialidases [1]: marked preference for Neu5Gc hydrolysis
Activity on 4MU-α-Neu5Ac [2]: only minor activity

B4: sialidase26: Bin13 GH33 sialidase from mouse gut metagenome, SEQ ID NO. 4, PDB 6MRX (protein)
chain: MKKNLFLSIIFSFCVILQAFASDTVFVRETQIPVLIERQDNVLFMLRLNAKESHTLDEVVLNFGKDVNMSDIQSVKLYYSGTEARQNYGKNFFAPVSYISSHTPGKTLAANPSYSINKSQVNNPKRKVALKANQKLFPGINYFWISLQMKPDASLLDKVAAKIAAIKVDNKEALMHTVSPENIVHRVGVGVRHAGDDGSASFRIPGLVTTNKGTLLGVYDVRYNNSADLQEHVDIGLSRSVDGGKTWEKMRLPLAFGETGDLPAAQNGVGDPSILVDTKTNTVWVVAAWTHGMGNQRAWWSSYPGMDMNHTAQLVLSKSTDDGKTWSKPINITEQVKDPSWYFLLQGPGRGITMQDGTLVFPIQFIDSTRVPNAGIMYSKDRGETWKIHNYARTNTTEAQVAEVEPGVLMLNMRDNRGGSRAISTTKDLGKTWTEHSSSRKALQEPVCMASLISVKAKDNVLNKDILLFSNPNTVKGRHHITIKASLDGGVTWLPEHQVMLDEGEGWGYSCLTMIDKETIGILYESSVAHMTFQAVQLRDIIK
modifications: Environmental sample
notes: 4, PDB 6MRX
Substrate preference, Neu5Gc versus Neu5Ac release [3]: preference for Neu5Gc
Release of Neu5Gc from food [4]: pronounced sialidase activity by releasing Neu5Gc from all food tested
